Source: US20160009819A1

T1: human [1-157]-mouse chimeric EL with C2 tag (human; mouse) (UniProt Q9WVG5)
T1 sequence: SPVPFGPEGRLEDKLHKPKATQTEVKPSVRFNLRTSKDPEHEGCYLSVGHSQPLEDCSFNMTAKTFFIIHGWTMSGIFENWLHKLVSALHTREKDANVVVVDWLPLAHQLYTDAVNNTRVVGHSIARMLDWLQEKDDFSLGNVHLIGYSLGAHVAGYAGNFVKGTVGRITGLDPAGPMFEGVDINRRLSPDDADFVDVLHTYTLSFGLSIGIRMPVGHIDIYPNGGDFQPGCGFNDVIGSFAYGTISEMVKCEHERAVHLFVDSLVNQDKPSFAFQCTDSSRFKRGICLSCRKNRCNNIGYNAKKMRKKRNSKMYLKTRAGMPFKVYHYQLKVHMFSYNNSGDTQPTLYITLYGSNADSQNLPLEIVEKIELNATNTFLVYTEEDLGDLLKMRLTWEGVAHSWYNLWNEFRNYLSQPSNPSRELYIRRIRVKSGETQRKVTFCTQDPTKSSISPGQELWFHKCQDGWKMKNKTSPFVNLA

T2: human [1-305]-mouse chimeric EL with C2 tag (human; mouse) (UniProt Q9WVG5)
T2 sequence: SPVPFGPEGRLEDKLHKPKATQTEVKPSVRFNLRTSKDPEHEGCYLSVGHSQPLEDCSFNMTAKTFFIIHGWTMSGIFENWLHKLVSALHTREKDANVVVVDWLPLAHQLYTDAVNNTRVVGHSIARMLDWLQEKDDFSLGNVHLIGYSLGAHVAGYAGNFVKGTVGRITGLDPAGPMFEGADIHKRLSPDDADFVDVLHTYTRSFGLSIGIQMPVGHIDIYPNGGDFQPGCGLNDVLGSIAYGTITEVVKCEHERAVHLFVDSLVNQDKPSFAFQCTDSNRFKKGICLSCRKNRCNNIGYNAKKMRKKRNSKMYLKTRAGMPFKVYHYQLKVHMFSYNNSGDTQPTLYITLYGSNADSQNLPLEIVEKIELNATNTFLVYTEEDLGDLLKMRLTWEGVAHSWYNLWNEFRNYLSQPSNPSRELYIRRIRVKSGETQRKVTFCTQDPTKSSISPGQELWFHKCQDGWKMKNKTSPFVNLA

T3: human [202-500]-mouse chimeric EL with C2 tag (mouse; human) (UniProt Q9WVG5)
T3 sequence: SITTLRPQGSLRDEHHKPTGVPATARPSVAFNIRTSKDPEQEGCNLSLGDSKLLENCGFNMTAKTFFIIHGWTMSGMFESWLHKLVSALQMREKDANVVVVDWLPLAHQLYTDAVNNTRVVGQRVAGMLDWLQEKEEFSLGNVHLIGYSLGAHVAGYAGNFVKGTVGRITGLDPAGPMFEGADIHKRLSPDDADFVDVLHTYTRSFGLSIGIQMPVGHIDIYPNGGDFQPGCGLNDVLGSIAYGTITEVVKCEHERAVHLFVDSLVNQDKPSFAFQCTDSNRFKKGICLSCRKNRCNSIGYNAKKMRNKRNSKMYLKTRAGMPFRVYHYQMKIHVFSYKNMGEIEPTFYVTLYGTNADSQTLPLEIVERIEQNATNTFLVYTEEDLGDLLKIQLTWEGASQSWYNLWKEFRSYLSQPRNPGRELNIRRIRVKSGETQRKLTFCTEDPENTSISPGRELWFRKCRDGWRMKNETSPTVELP


Biological target: T1, human [1-157]-mouse chimeric EL with C2 tag (human; mouse)
Experiment: ELISA: antibody captured on anti-mouse IgG-Fc plate, C2-tagged EL heparin extract added, anti-C2-tag detection, A450 (Example 8)

Row | EC50 (read off the curve) [ng/mL] | Binder
1 | 4 | 23H8 antibody (antibody, V domains shown) VH: EVQLQQSGPELLKPGASVKISCKASGYTFTDNTIHWVKQSHGKSLEWIGHINPYYGGTNNNEKFKDKATLTVDKSSSTAYMELRSLTSEDSAIYYCARKGIYYSSPFDYWGQGTTLTVSS VL: DIQMTQTTSSLSASLGDRVTISCRASQDINNYLNWYQQKPDGTVKLLISYTSKLHSGVPSRFSGSGSGTDYSLTISNLEREDFATYFCQQGNTLPFTFGSGTNLEIK
2 | 4 | 55A1 antibody (antibody, V domains shown) VH: QIHLVQSGPELKKPGETVKISCKASGYTFTNYGMNWVKQAPGKGLKWMGWINTYSGVPTYAGDFKGRFAFSLETSASTAYLQINNLKNEDTATYFCARRGYYGRRYFDVWGTGTTVTVSS VL: DIVLTQSPASLAVSLGQRATISCKASQSVDYDVDSYMHWYQQKPGQPPKLLIYAASNLASGIPARFSGGGSGTDFTLNIHPVEEEDVATYYCQQTIEDPPTFGGGTKLEIK
3 | 6 | 53A11 antibody (antibody, V domains shown) VH: EVQLQQSGPELLKPGASVKISCKASGYTFTDYTMHWVKQSHGKSLEWIGGINPYYGGTTYNEKFKDKATLTVDKSSSTAYMELRSLTSEDSAVYYCAKGDYYGGSYNYWGQGTTLTVSS VL: DIVLTQSLATLSVTPGDSVSLSCRASQDISNSLHWYQQKSHESPRLLIKYASQSISGIPSRFSGSGSGTDFTLSINSVETEDFGMYFCQQSNSWPYTFGGGTKLEIK

Further lines, the binder ahead of its results:

Row | Binder | EC50 (read off the curve) [ng/mL]
4 | 7D4 antibody (antibody, V domains shown) VH: QIQLVQSGPELKKPGETVKISCKASGYTFTNYGMNWVKQAPGKDLKWMGWINTYSGVPTYADDFKGRFAFSLETSASTAYLQINNLKNEDTATYFCARFSYYGRHYFDYWGQGTTLTVSS VL: DIVLTQSPASLAVSLGQRATISCKASQSVDYDGDSYMNWYQQKPGQPPQLLIYAASNLGSGIPARFSGSGSGTDFTLNIHPVEEEDAATYYCHQSTDDPPWTFGGGTKLEIK | 6
5 | 14A1 antibody (antibody, V domains shown) VH: QIQLVQSGPELKKPGETVKISCKASGYTFTNYGMNWVKQAPGKGLKWMGWINTYSGVPTYADDFKGRFAFSLETSASTAYLQINNFKNEDTATYFCARFSYYGRHYFDYWGQGTALTASS VL: DIVLTQSPASLAVSLGQRATISCKASQSVDYDGDSYMNWYQQKPGQPPKLLIYAASNLKSGIPARFSGSGSGTDFTLNIHPVEEEDAATYYCQQTTDDPPWTFGGGTKLEIK | 7
6 | 13B3 antibody (antibody, V domains shown) VH: EVQLQQSGPELLKPGASVKISCKASGYTFTEYTMHWVKQSHGKSLEWIGSINPYYGGTSYNEKFKDKATLTVDKSSNTAYMEFRSLTSEDCAVYYCARYGNYVGYFDYWGQGTTLTVSS VL: ENVLTQSPAIMSASLGEKVTMSCRASSSVHYMYWYQQKSDASPKLWIYYTSNLAPGVPDRFSGSGSGNSYSLTISSMEGEDAATYYCQQFTSSPYTFGGGTKLEIK | 4

Biological target: T2, human [1-305]-mouse chimeric EL with C2 tag (human; mouse)
Experiment: as above

Row | EC50 (read off the curve) [ng/mL] | Binder
7 | 6 | 19E7 antibody (antibody, V domains shown) VH: QVQLQQPGSVLVRPGASVKLSCKASGYTFTTYWMHWVKQRPGQGLEWIGEIHPYSGNNNNNEKFKGKATLTVDTSSSTAYVDLSRLTSEDSAVYYCARYDSNYVFAYWGQGTLVTVSA VL: QIVLTQSPAIMSASPGEGVTITCSASSSVSYMHWFQQKPGTSPKLWIYSTSNLASGVPARFSGSGSGTSYSLTISRMEAEDAATYYCQQRDSYLTFGSGTKLEVK

Biological target: T3, human [202-500]-mouse chimeric EL with C2 tag (mouse; human)
Experiment: as above

Row | EC50 (read off the curve) [ng/mL] | Binder
8 | 20 | 14E1 antibody (antibody, V domains shown) VH: QVQLQQSGAELVKPGASVRLSCKASGYTFTKYTIHWVKQRSGQGLEWIGWFYPGSDSIKYNEKFKDKATLTADKSSRTVYMELSRLTSEDSAVYFCARHEEYTNSLAYWGQGTLVTVSA VL: DIQMTQTTSSLSASLGDRVTISCRASQDISNYLNWYQQQPDGTVKLLIYYTSRLHSGVPSRFSGSGSGTDYSLTISNLEQEDIATYFCQQGYTLPWTFGGGTNLEIK
9 | 4 | 16B3 antibody (antibody, V domains shown) VH: DVKLVESGGGLVQPGGSLKLSCTASGFTFSGYTMSWVRQTPEKRLELVAEISFARDRAFYPDTVKGRFTISRDNAKNTLYLQMSSLKSEDTAMYYCTRLGGRNHDYWYFDVWGTGTTVTVSS VL: DIVLTQSPTSLAVSPGQRATISCRASESVEYYGTSLMQWYQQKPGQRPQLLIYAASNVESGVPARFSGSGSGTDFSLNIHPVEEDDIAVYFCQQSWKVPFTFGSGTKLEIK
10 | 8 | 16E7 antibody (antibody, V domains shown) VH: EVKLVESGGGLVQPGGSLKLSCAASGFTFSSYTMSWVRQTPEKRLELVAEISFTRSRAFYPDTVKGRFTISRDNAKNTLYLQMSSLKSEDTAMYYCARLGGNNYDYWYFDVWGTGTTVTVSS VL: DIVLTQSPTSLAVSLGQRATISCRASESVEYYGTSLMQWYQQKPGQRPKLLIYAASNVESGVPARFSGSGSGTDFSLNIHPVEEDDIAMYFCQQSWKVPFTFGSGTKLEIK
